Residue numbers refer to the chain shown, from its start.
B1: L12.bP11G07 (antibody, V domains shown)
VH: QVQLVESGGGLIQPGGSLRLSCAASGFTVSSNYMSWVRQAPGKGLEWVSVIYSGGSTFYADSVKGRFTISRDNSKSTLYLQMNSLRVEDTAVYYCARDFGDFYFDYWGQGTLVTVSS
VL: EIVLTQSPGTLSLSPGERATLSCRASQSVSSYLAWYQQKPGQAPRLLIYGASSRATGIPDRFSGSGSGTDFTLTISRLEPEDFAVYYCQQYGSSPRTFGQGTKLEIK
notes: human IgG1
B2: L6.dP03H10 (antibody, V domains shown)
VH: QVQLVQSGAEVKKPGSSVKVSCKASGGTFSIYAITWVRQAPGQGLEWMGGIIPIIGTANYAQKFQGRVTITADKSTSTAYMELSSLRSEDTAVYYCARDFRYCSSTRCYFWFDPWGQGTLVTVSS
VL: DIQMTQSPSSLSASVGDRVTITCRASQNISSYLNWYQQEAGKAPKLLIYAASSLQSGVPSRFSGSGSGTDFTLTISSLQPEDFATYYCQQSYSTPRTFGQGTKVDIK
B3: L6.dP02E05 (antibody, V domains shown)
VH: QVQLVQSGSELKKPGASVKVSCKASGYTFATYALNWVRQAPGQGLEWMGWVNTNTGSPTYAQGFTGRFVFSFDTSVSTAYLQIRTLKAEDTAVYYCAVYYYDSGSPGWFDPWGQGTLVTVSS
VL: B2 VL with M4L, N28T, I29A, E39K, A40P, K45N, G68V, R96P
notes: human IgG1
B4: L12.bP13A12 (antibody, V domains shown)
VH: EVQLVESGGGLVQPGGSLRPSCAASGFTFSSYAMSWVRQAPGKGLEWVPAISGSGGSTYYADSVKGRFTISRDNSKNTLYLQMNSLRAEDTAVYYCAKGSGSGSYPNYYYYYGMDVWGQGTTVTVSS
VL: SYELTQSPSVSVAPGQTARITCGGNNIGSKSVHWYQRKPGQAPVLVVYDDSDRPSGIPERFSGSNSGNTATLTISRVEAGDEADYYCQVWDNNSDHLVFGGGTKLTVL
B5: L12.cP09D05 (antibody, V domains shown)
VH: QVQLVESGGGLVKPGGSLRLSCAASGFTFNYYSMNWVRQAPGKGLEWISSISTSSSFVYYADSVKGRFTISRDNAKTSLYLQMNSLRAEDTAVYFCARGGYCSDGSCYVQDRLIYYYSGLDVWGQGTTVTVSS
VL: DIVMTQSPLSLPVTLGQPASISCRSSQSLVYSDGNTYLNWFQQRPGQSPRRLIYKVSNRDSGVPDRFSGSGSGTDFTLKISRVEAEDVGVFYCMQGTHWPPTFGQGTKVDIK
notes: human IgG1
B6: L12.cP07E10 (antibody, V domains shown)
VH: EVQLVESGGGLIQPGGSLRLSCAASGFTVSSNYMSWVRQAPGKGLEWVSVIYSGGSTYYADSVKGRFTISRDNSKNTLYLQMNSLRAEDTAVYYCARDPYGYSSIWDGQGGHWGQGTLVTVSS
VL: DVVMTQSPSSLSASVGDRVTITCQASQDISNYLNWYQQKPGKAPKLLIYDASNFATGVPSRFSGTGSGTDFTFTISSLQPEDIATYYCQQYDNLPITFGQGTRLEIK
notes: human IgG1
B7: L12.cP08D10 (antibody, V domains shown)
VH: EVQLVQSGAEVKKPGASVKVSCKASGYIFSGYYMHWVRQAPGQGLEWMGWISPDSGGTNYAQNFQGRVTMTRDTSISTGYMELSRLRSDDTAMYYCARGPRYSGTYFDYWGQGVLVTVSS
VL: QSVLTQPASVSGSPGQSITISCTGTSSDVGGYNYVSWYQQHPGKVPKLMIYDVSNRPSGVSNRFSGSKSGNTASLTISGLQAEDEADYYCSSYTSSSAQVFGGGTKLTVL
notes: human IgG1
B8: L12.bP11A11 (antibody, V domains shown)
VH: QVQLVQSGAEVKKPGASVKVSCKASGYTFTGYYMHWVRQAPGQGLEWMGWISPNSGGTNYAQKFQGWVTMTRDTSVSTAYMELSRLRFDDTAVYYCATESWVYGSGSYSSGAFDIWGQGTMVTVSS
VL: QSVLTQPPSASGSPGQSVTISCTGTSSDVGGYDYVSWYQQHPGKAPKLMIYEVSKRPSGVPDRFSGSKSGNTASLTVPGLQAEDEADYYCTSYAGSNNFVFGGGTKLIVL
notes: human IgG1
B9: L6.dP04A03 (antibody, V domains shown)
VH: QVQLVQSGAEVKKPGSSVKVSCKASGGTFSSSAISWVRQAPGQGLEWMGGIIPILDITNYAQKFQGRVTITADKSTSTAFMELSSLRSEDTAVYYCALRNQWDLLVYWGQGTLVTVSS
VL: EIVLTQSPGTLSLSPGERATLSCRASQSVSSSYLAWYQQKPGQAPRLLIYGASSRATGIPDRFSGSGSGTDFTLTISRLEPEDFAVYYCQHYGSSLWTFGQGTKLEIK
B10: L6.P4A3.1 (antibody, V domains shown)
VH: B9 VH with T28I, T58S, R99T
VL: EIVLTQSPGTLSLSPGERATLSCRASQRVSSSYLAWYQQKPGQAPRLLIYGAESRATGIPDRFSGSGSGTDFTLTISRLEPEDFAVYYCQHYGSSLWTFGQGTKLEIK

Biological target: SARS-CoV-1 RBD (RBD-1) (SARS-CoV-1)
Assay: ELISA

Binder	EC50
B1	> 50 µg/mL
B2	> 50 µg/mL
B3	> 50 µg/mL
B4	> 50 µg/mL
B5	> 50 µg/mL
B6	> 50 µg/mL
B7	> 50 µg/mL
B8	> 50 µg/mL
B9	0.915 µg/mL

Biological target: SARS-CoV-2 RBD (RBD-2) (SARS-CoV-2)
Assay: ELISA

Binder	EC50
B1	0.025 µg/mL
B2	0.012 µg/mL
B3	0.015 µg/mL
B4	0.019 µg/mL
B5	0.039 µg/mL
B6	0.058 µg/mL
B7	> 50 µg/mL
B8	1.9 µg/mL

Biological target: T1, SARS-CoV-2 spike on pseudovirus or live virus (USA-WA1/2020, WT) (SARS-CoV-2, UniProt P0DTC2 14-1273)
Assay: cell-based or functional assay

Binder	Maximum Plateau of Neutralization	PSV neutralization IC50
B1	100%	0.018 µg/mL
B2	100%	0.001 µg/mL
B3	100%	0.002 µg/mL
B4	50%	> 50 µg/mL
B5	100%	0.023 µg/mL
B6	100%	0.1 µg/mL
B7	60%	23.5 µg/mL
B8	100%	0.11 µg/mL
B9	100%	0.039 µg/mL

Biological target: T2, SARS-CoV-1 spike on pseudovirus (SARS-CoV-1, UniProt P59594 14-1255)
Assay: cell-based or functional assay

Binder	PSV neutralization IC50
B1	> 50 µg/mL
B2	> 50 µg/mL
B3	> 50 µg/mL
B4	> 50 µg/mL
B5	> 50 µg/mL
B6	> 50 µg/mL
B7	> 50 µg/mL
B8	> 50 µg/mL
B9	0.162 µg/mL

Biological target: SARS-CoV-2 RBD (RBD-2) (SARS-CoV-2)
Assay: SPR

Binder	Kd
B2	5.9 nM
B9	257 nM

Biological target: T1, SARS-CoV-2 spike on pseudovirus or live …
Assay: cell-based or functional assay
Remark: another data set of the same source

Binder	neutralization IC50
B2	0.0017 µg/mL
B3	0.0075 µg/mL
B9	0.168 µg/mL

Biological target: SARS-CoV-2 RBD (RBD-2) (SARS-CoV-2)
Assay: flow, HeLa-ACE2, mAb:RBD=4:1

Binder	% inhibition of RBD binding to hACE2	MFI (RBD binding to cell surface)
B1	91.9%	982
B4	-46.7%	16400
B5	80.6%	2230
B6	99.1%	178
B7	13.2%	9710
B8	53.9%	5190

Biological target: SARS-CoV-2 RBD (RBD-2) (SARS-CoV-2)
Assay: SPR, Fc-captured IgG

Binder	Kd	koff	kon
B1	8.59 nM	0.00342 s⁻¹	399000 M⁻¹ s⁻¹
B4	26 nM	0.0115 s⁻¹	443000 M⁻¹ s⁻¹
B5	36.2 nM	0.0157 s⁻¹	435000 M⁻¹ s⁻¹
B6	2.6 nM	0.000364 s⁻¹	140000 M⁻¹ s⁻¹
B7	> 500 nM	0.312 s⁻¹	59400 M⁻¹ s⁻¹
B8	170 nM	0.066 s⁻¹	388000 M⁻¹ s⁻¹

Biological target: T1, SARS-CoV-2 spike on pseudovirus or live …
Assay: cell-based or functional assay
Remark: another data set of the same source

Binder	PSV neutralization IC50
B1	0.013 µg/mL
B4	0.051 µg/mL
B5	0.008 µg/mL
B6	0.029 µg/mL
B7	4.3 µg/mL
B8	0.016 µg/mL

Biological target: T2, SARS-CoV-1 spike on pseudovirus
Assay: cell-based or functional assay
Remark: another data set of the same source

Binder	PSV neutralization IC50
B1	> 50 µg/mL
B4	> 50 µg/mL
B5	> 50 µg/mL
B6	> 50 µg/mL
B7	> 50 µg/mL
B8	> 50 µg/mL

Biological target: SARS-CoV-2 RBD (RBD-2) (SARS-CoV-2)
Assay: flow, HeLa-ACE2, mAb:RBD=2:1

Binder	% inhibition of RBD binding to hACE2	MFI (RBD binding to cell surface)
B1	86.8%	1550
B4	-44.2%	16100
B5	75.4%	2810
B6	98.6%	237
B7	6.1%	10500
B8	43.6%	6330

Biological target: T1, SARS-CoV-2 spike on pseudovirus or live …
Assay: cell-based or functional assay
Remark: another data set of the same source

Binder	PSV in HeLa-ACE2 cells IC50	live virus IC50 (HeLa-ACE2)	live virus IC50 (Vero)
B10	0.005 µg/mL	0.008 µg/mL	0.001 µg/mL

Biological target: T2, SARS-CoV-1 spike on pseudovirus
Assay: cell-based or functional assay
Remark: another data set of the same source

Binder	PSV in HeLa-ACE2 cells IC50
B10	0.049 µg/mL

Reference: patent publication US20230357364A1 (INTERNATIONAL AIDS VACCINE INITIATIVE, published 2023)
